Experimental data: paper PMC8978962

Target: CitbHLH2-YFPN (citrus)

CitALMT promoter activity (LUC/REN, dual-luciferase assay in tobacco leaves) with the combination of CitMYB52 and CitbHLH2, against the empty vector SK set as 1: 9.8 fold
Substance: CitMYB52-YFPC (natural protein)
